# B1: DKK1: Wnt Inhibitor DKK-1 (Dikkopf-1) (protein, UniProt O94907 32-266, looked up)
# Dickkopf-related protein 1: TLNSVLNSNAIKNLPPPLGGAAGHPGSAVSAAPGILYPGGNKYQTIDNYQPYPCAEDEECGTDEYCASPTRGGDAGVQICLACRKRRKRCMRHAMCCPGNYCKNGICVSSDQNHFRGEIEETITESFGNDHSTLDGYSRRTTLSSKMYHTKGQEGSVCLRSSDCASGLCCARHFWSKICKPVLKEGQVCTKHRRKGSHGLEIFQRCYCGEGLSCRIQKDHHQASNSSRLHTCQRH
# B2: BMP-4: BMP-4 (Catalog#314-BP-010, R&D Systems, MN) (protein, UniProt P12644 293-408, looked up)
# Bone morphogenetic protein 4: SPKHHSQRARKKNKNCRRHSLYVDFSDVGWNDWIVAPPGYQAFYCHGDCPFPLADHLNSTNHAIVQTLVNSVNSSIPKACCVPTELSAISMLYLDEYDKVVLKNYQEMVVEGCGCR
# B3: FGF10: fibroblast growth factor FGF10, 50 ng/ml (protein, UniProt O15520 38-208, looked up)
# Fibroblast growth factor 10: QALGQDMVSPEATNSSSSSFSSPSSAGRHVRSYNHLQGDVRWRKLFSFTKYFLKIEKNGKVSGTKKENCPYSILEITSVEIGVVAVKAINSNYYLAMNKKGKLYGSKEFNNDCKLKERIEENGYNTYASFNWQHNGRQMYVALNGKGAPRRGQKTRRKNTSAHFLPMVVHS
# B4: Wnt1: WNT-1 (PeproTech, NJ, Catalogue#120-17) (protein, UniProt P04628 28-370, looked up)
# Proto-oncogene Wnt-1: ANSSGRWWGIVNVASSTNLLTDSKSLQLVLEPSLQLLSRKQRRLIRQNPGILHSVSGGLQSAVRECKWQFRNRRWNCPTAPGPHLFGKIVNRGCRETAFIFAITSAGVTHSVARSCSEGSIESCTCDYRRRGPGGPDWHWGGCSDNIDFGRLFGREFVDSGEKGRDLRFLMNLHNNEAGRTTVFSEMRQECKCHGMSGSCTVRTCWMRLPTLRAVGDVLRDRFDGASRVLYGNRGSNRASRAELLRLEPEDPAHKPPSPHDLVYFEKSPNFCTYSGRLGTAGTAGRACNSSSPALDGCELLCCGRGHRTRTQRVTERCNCTFHWCCHVSCRNCTHTRVLHECL
# Tests used:
# H9P55 cells = test: Definitive endoderm on human fibronectin or […] (FACS, real-time PCR); format: cell-based; conditions: fibronectin vs MATRIGEL coated plates
# Experimental: H9P55 cells were grown and differentiated on human fibronectin or regular growth factor […]™ (BD Biosciences). 1 ml of DMEM/F12 (Invitrogen/GIBCO) containing 1 ug/ml of human fibronectin (R&D systems, MN) was added to each well of 6 well tissue culture treated dish. Alternatively, regular growth factor […]™ was diluted 1:10 in DMEM/F12 and 1 ml of diluted […]™ was added to each well of 6 well tissue culture treated dish. Cells were passed with collagenase. […] Real-time PCR results (FIG. 39) confirm that formation of definitive endoderm was equivalent on fibronectin and […]™ coated plates.
# H9 cells = test: Definitive endoderm after treatment with Wnt inhibitor DKK-1 (real-time PCR); format: cell-based, human; conditions: 100 ng/ml DKK1 with 20 ng/ml Wnt3a and 100 ng/ml activin A
# Experimental: To determine if the addition of Wnt-3a was causing the increase in differentiation, an inhibitor of Wnt-3 signaling was added to the cultures. […] H9 cells were cultured on plates coated with Growth Factor Reduced […] at a 1:30 dilution. The plates were coated with […] for 1 hr at room temperature.
# At day 5, the cultures were analyzed by real time PCR for SOX-17, SOX-7, Alpha-fetal protein (AFP), CXCR4, Brychyury (Bry), gooscecoid (GSC), HNF-3 beta, GATA4, hTERT and Oct4. AFP and SOX-7 are regarded as visceral endoderm markers while GATA4, HNF-3beta and SOX-17 represent definite endoderm markers and GSC, Bry, and CXCR4 represent markers of primitive streak. hTERT and Oct-4 are markers for self renewal and pluripotency respectively.
# [1] = system: H9P53 embryonic stem cells; test: Definitive endoderm on […]: combination of Wnt-3a, GSK-3B inhibitor, BMP-4; format: cell-based, human; conditions: 25 ng/ml BMP-4 added to the DE protocol
# Description: Results are expressed as fold increase over untreated cells. […] Results are expressed as fold increase over untreated cells.
# [2] = system: pancreatic endoderm cells derived from human embryonic stem cells; test: Passage and expansion of pancreatic endoderm cells in culture with FGF10 (Q-PCR); format: cell-based; conditions: 50 ng/ml FGF10, 6 day culture period
# Experimental: The low serum DMEM/F12 contained 0% (v/v) fetal bovine serum (FBS) on day 1, 0.5% (v/v) FBS on day two and 2% (v/v) FBS on each day thereafter. After four days of differentiation, the cells were cultured in low serum DMEM/F12 contained 2% (v/v) FBS, 1 μM retinoic acid and 50 ng/ml bFGF for a total of six more days. After the six days of differentiation, the cells were maintained in culture in low serum DMEM/F12 contained 2% (v/v) FBS in the presence of 50 ng/ml FGF10 for a total of 6 days. During the six-day culture period, the pancreatic endoderm cells were passaged twice and cell population-doubling time is about 36 to 48 hours during this 6-day culture. On days 0, 3, and 6 of culture, Q-PCR was used to measure the expression of marker genes indicative of pancreatic endoderm.
# H1P55 ES cells = test: Definitive endoderm on […]: role of Wnt1 (real-time PCR); format: cell-based, human; conditions: 20 ng/ml Wnt1 in the presence of 100 ng/ml AA
# Experimental: The following combinations of WNT1+AA were tested:
# a) 20 ng/ml of WNT1+100 ng/ml AA in 0.5% FBS+DM-F12 for days 1-2 followed by 2% FBS+DM-F12+100 ng/ml AA for day three, b) 20 ng/ml of WNT1+100 ng/ml AA in 0.5% FBS+DM-F12 for days 1-2 followed by 2% FBS+DM-F12+100 ng/ml AA for days 3-5, c) 10 ng/ml of WNT1+100 ng/ml AA in 0.5% FBS+DM-F12 for days 1-2 followed by 2% FBS+DMF12+100 ng/ml AA for day three, d) 10 ng/ml of WNT1+100 ng/ml AA in 0.5% FBS+DM-F12 for days 1-2 followed by 2% FBS+DM-F12+100 ng/ml AA for days 3-5, e) 20 ng/ml of WNT1+100 ng/ml AA in 0.5% FBS+DM-F12 for days 1-2 followed by 2% FBS+DM-F12+100 ng/ml AA+20 ng/ml of WNT1 for day three, f) 20 ng/ml of WNT1+100 ng/ml AA in 0.5% FBS+DM-F12 for days 1-2 followed by 2% FBS+DM-F12+100 ng/ml AA+20 ng/ml of WNT1 for days 3-5.
molecule,measurement,setting,value
fibronectin,formation of definitive endoderm (real-time PCR),H9P55 cells,equivalent
B1,"expression level of differentiation markers (CXCR4, GATA4, HNF-3beta, SOX17, goosecoid)",H9 cells,dramatically decrease to levels similar to that of untreated cells
B2,mesoderm marker BRY,[1],induce formation of mesoderm marker BRY
B3,expression of pancreatic endoderm marker Pdx1,[2],maintained expression
B4,"definitive endoderm markers (Bry, CXCR4, GSC, SOX17, HNF-3B, and GATA-4)",H1P55 ES cells,significant up regulation

# Source: patent US9096832B2, “Differentiation of human embryonic stem cells” (LifeScan, Inc., priority 2007, dated 2015)
